Laboratory results reported in the supplement of paper PMC9112550, “Optimization of the antimicrobial peptide Bac7 by deep mutational scanning” (BMC Biology, 2022).

system: Escherichia coli TOP10; assay: shrunken log2 fold change of peptide-encoding DNA abundance (4.5 h post-induction vs induction); higher = less antimicrobial activity (less host growth inhibition); conditions: time post-induction: 4.5 h; library: site-saturation at positions 5, 18, 19, 20
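Further: peptides expressed intracellularly from a pBAD plasmid library in pooled LB shake-flask culture, induced with 0.3% L-arabinose, DNA abundance read by NGS, three biological replicates, DESeq2 with apeglm shrinkage.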

| Sequence | shrunken log2 fold change |
| --- | --- |
| RRIRSRPPRLPRPRPRPFFSPRP | -0.13 |
| RRIRTRPPRLPRPRPRPTARPRP | 0.0618 |
| RRIRWRPPRLPRPRPRPRCLPRP | 0.164 |
| RRIRVRPPRLPRPRPRPKQIPRP | -0.0455 |
| RRIRCRPPRLPRPRPRPNRHPRP | -0.388 |
| RRIRERPPRLPRPRPRPMITPRP | -0.0683 |
| RRIRSRPPRLPRPRPRPIFTPRP | -0.275 |
| RRIRWRPPRLPRPRPRPCDDPRP | -0.00725 |
| RRIRIRPPRLPRPRPRPYQDPRP | -0.0361 |
| RRIRNRPPRLPRPRPRPATFPRP | -0.441 |
| RRIRLRPPRLPRPRPRPLDQPRP | 0.105 |
| RRIRYRPPRLPRPRPRPMIKPRP | 0.0227 |
| RRIRSRPPRLPRPRPRPCRYPRP | -0.424 |
| RRIRTRPPRLPRPRPRPLDMPRP | -0.247 |
| RRIRERPPRLPRPRPRPMNCPRP | 0.0528 |
| RRIRIRPPRLPRPRPRPFDLPRP | -0.348 |
| RRIRYRPPRLPRPRPRPHMDPRP | -1.85 |
| RRIRIRPPRLPRPRPRPAFEPRP | -0.117 |
| RRIRTRPPRLPRPRPRPVIQPRP | -0.202 |
| RRIRPRPPRLPRPRPRPNLCPRP | 0.138 |

| Sequence | shrunken log2 fold change |
| --- | --- |
| RRIRVRPPRLPRPRPRPSTIPRP | -0.136 |
| RRIRFRPPRLPRPRPRPDDWPRP | 0.044 |
| RRIRQRPPRLPRPRPRPFHAPRP | -0.117 |
| RRIRTRPPRLPRPRPRPFWNPRP | -0.104 |
| RRIRERPPRLPRPRPRPAIYPRP | -0.051 |
| RRIRDRPPRLPRPRPRPRSHPRP | -0.0765 |
| RRIRARPPRLPRPRPRPEMVPRP | 0.00546 |
| RRIRQRPPRLPRPRPRPHATPRP | -0.0615 |
| RRIRSRPPRLPRPRPRPTRVPRP | 0.872 |
| RRIRNRPPRLPRPRPRPERYPRP | 0.0573 |
| RRIRDRPPRLPRPRPRPHMVPRP | -0.195 |
| RRIRYRPPRLPRPRPRPRTKPRP | 0.011 |
| RRIRDRPPRLPRPRPRPVNMPRP | -0.296 |
| RRIRIRPPRLPRPRPRPYWAPRP | -1.07 |
| RRIRPRPPRLPRPRPRPALHPRP | 0.681 |
| RRIRCRPPRLPRPRPRPPYKPRP | -0.511 |
| RRIRFRPPRLPRPRPRPYDIPRP | -0.0365 |
| RRIRYRPPRLPRPRPRPGKKPRP | -0.00101 |
| RRIRARPPRLPRPRPRPPGGPRP | 0.864 |
| RRIRNRPPRLPRPRPRPVQMPRP | 0.0259 |

| Sequence | shrunken log2 fold change |
| --- | --- |
| RRIRSRPPRLPRPRPRPYPMPRP | -0.035 |
| RRIRARPPRLPRPRPRPQYQPRP | -0.243 |
| RRIRPRPPRLPRPRPRPIKEPRP | -0.00478 |
| RRIRVRPPRLPRPRPRPIWNPRP | -0.624 |
| RRIRPRPPRLPRPRPRPQTRPRP | 0.227 |
| RRIRARPPRLPRPRPRPTTQPRP | 0.584 |
| RRIRLRPPRLPRPRPRPAAVPRP | 0.376 |
| RRIRTRPPRLPRPRPRPAVGPRP | 0.532 |
| RRIRDRPPRLPRPRPRPCHKPRP | -0.00188 |
| RRIRPRPPRLPRPRPRPVSFPRP | 0.0766 |
| RRIRARPPRLPRPRPRPSPYPRP | -0.333 |
| RRIRPRPPRLPRPRPRPHQWPRP | -0.0599 |
| RRIRDRPPRLPRPRPRPLRDPRP | 0.537 |
| RRIRCRPPRLPRPRPRPFVFPRP | -0.26 |
| RRIRPRPPRLPRPRPRPYRPPRP | -0.257 |
| RRIRFRPPRLPRPRPRPDFAPRP | 0.0852 |
| RRIRPRPPRLPRPRPRPSPWPRP | 0.0349 |
| RRIRDRPPRLPRPRPRPTPCPRP | 0.25 |
| RRIRSRPPRLPRPRPRPKNNPRP | -0.273 |
| RRIRTRPPRLPRPRPRPWKQPRP | 0.0162 |
